Results published in article PMC3173194.

Molecular target: GalNAc-glycosylated recombinant MUC2 fragment (UniProt Q02817)
Assay: peptide or protein array

percent of the total binding (of GalNAc-T2 to GalNAc-MUC2, with Mn2+ and UDP): 20%
Substance: GalNAc-T2 with a mutation in the α-lectin subdomain (GalNAc-T2^458H) (from UniProt Q10471 52-571) (enzyme)
